# Reference: patent US6368619B1, “Hydrophobic preparations of hydrophilic species and process for their preparation” (Provalis UK Limited, priority 1993, dated 2002)
# Experiments:
# Assay type in all cases: physicochemical
# [1] = Percent sedimentation after 24 hours of macromolecules dispersed in oleic acid with and without PC; settings: 300 μl oleic acid, error ±5%; for Percent sedimentation after 24 hours, +PC: Example 17: with egg yolk PC SUVs; for Percent sedimentation after 24 hours, −PC: Example 17: without PC
# Method: 10 mg of cytochrome C, haemoglobin and FITC-dextran were each dissolved in 1 ml of distilled water. 4.4 mg of RNA (extracted from Torula yeast) was dissolved in 1 ml of phosphate-buffered saline. 2×50 μl of each of these solution was dispensed into fresh glass tubes, and to one of each of these sets of solutions was added 250 μl of SUVs prepared as in example 1 at a concentration of 40 mg/ml of egg yolk lecithin (PC).
# Both sets of tubes were shell-frozen and lyophilised overnight as above. The following day 300 μl of oleic acid was added to each of the tubes. The samples were left to stand at room temperature with occasional vortexing for one hour until complete dispersion had been achieved. The oils were allowed to stand overnight. The turbidity of the samples prepared without PC was greater than those containing PC.
# The following day, sediments had settled out in the samples prepared without PC. Without disturbing any of the samples, the top 150 μl of each sample was taken off, and the absorbances measured of both the material removed, and the material left behind, after mixing; comparison of the two readings allowed one to calculate the percentage sedimentation for samples with and without PC (error in measurements ±5%) Values obtained are listed below.
# [2] = Dispersion of hydrophilic species/amphiphile array in hydrophobic solvent: visual optical clarity
# [3] = Turbidity of oil preparations by optical density / absorbance (plate reader); settings: for OD650: Example 23: HDPoC, one hour; for optical density at 550 nm: Example 25: 0.5 mg protein/well, oleic acid
# Method: It is very much preferred that the preparations of the invention are optically clear and this can be monitored by measuring turbidity at visible wave lengths and, in some cases, by checking for sedimentation over a period of time. […]
# Aprotinin was dissolved in distilled water at a concentration of 10 mg/ml. Hexadecyl phosphocholine (HDPoC) was dissolved in distilled water at a concentration of 100 mg/ml. To aliquots of 100 μl of aprotinin solution, volumes of HDPOC were added ranging from 0 through to 10, 20, 30, 40 to 50 μl. The mixtures were frozen at −20° C. and lyophilised overnight. The following day 100 μl of oleic acid was added to each sample and shaken for one hour at room temperature on an orbital shaker.
# Octyl glucoside was dissolved in distilled water and dispensed into wells of a microplate to give the following amounts of amphiphile per well: −0, 0.5, 1.0, 1.5, 2.0, 2.5, 5, 7.5 and 10 mg. Aprotinin was dissolved in distilled water at a concentration of 5 mg/ml, and 100 μl was dispensed into each well above, containing 0.5 mg of protein. The plate was mixed well, frozen at −20° C. and lyophilised overnight. The following day, […] of oleic acid was added to each well. The plate was shaken at room temperature, and optical density measurements at 550 nm taken at intervals with a plate reader. A low absorbance value indicates a low level of scattering, and corresponds to effective dispersion of protein in oil.
# The results, expressed in terms of optical density as a function of octyl glucoside concentration (at constant protein concentration) at different times after addition of oleic acid are given in the table and accompanying graph.
# [4] = Example 7: salmon calcitonin together with aprotinin, egg PC (EmulsiFlex), glycerol mono-oleate BP
compound,measurement,setting,value
Cytochrome C,"Percent sedimentation after 24 hours, +PC",[1],3.1%
same,"Percent sedimentation after 24 hours, −PC",[1],76%
aprotinin,appearance of oil phase,"[2]; Example 3: lyophilate stored 5 days at 4° C. in desiccator with phosphorus pentoxide, then 300 mg oleic acid",optically clear oil phase
same,appearance of dispersion,[2]; [4],optically clear opalescent dispersion
same,appearance of solution,"[2]; Example 23: HDPoC, lipid:protein ratio 4:1, oleic acid",Optically clear solutions
same,appearance of solution,"[2]; Example 23: HDPoC, lipid:protein ratio 5:1, oleic acid",Optically clear solutions
same,appearance of dispersion,"[2]; Example 36: AOT amphiphile, 200 mg octanol, cleared rapidly, state after 24 hours",opalescent dispersion
same,OD650,"[3]; lipid:protein ratio 0, 100 μl oleic acid",1.117
same,OD650,"[3]; lipid:protein ratio 1:1, 100 μl oleic acid",0.869
same,OD650,"[3]; lipid:protein ratio 2:1, 100 μl oleic acid",0.438
same,OD650,"[3]; lipid:protein ratio 3:1, 100 μl oleic acid",0.207
same,OD650,"[3]; lipid:protein ratio 4:1, 100 μl oleic acid",0.094
same,OD650,"[3]; lipid:protein ratio 5:1, 100 μl oleic acid",0.099
same,optical density at 550 nm,"[3]; octyl glucoside 0.00 mg/well, 1 hr",0.548
same,optical density at 550 nm,"[3]; octyl glucoside 0.00 mg/well, 4 hr",0.458
same,optical density at 550 nm,"[3]; octyl glucoside 0.00 mg/well, 8 hr",0.489
same,optical density at 550 nm,"[3]; octyl glucoside 0.50 mg/well, 1 hr",0.082
same,optical density at 550 nm,"[3]; octyl glucoside 0.50 mg/well, 4 hr",0.043
same,optical density at 550 nm,"[3]; octyl glucoside 0.50 mg/well, 8 hr",0.103
same,optical density at 550 nm,"[3]; octyl glucoside 1.00 mg/well, 1 hr",−0.003
same,optical density at 550 nm,"[3]; octyl glucoside 1.00 mg/well, 4 hr",−0.008
same,optical density at 550 nm,"[3]; octyl glucoside 1.00 mg/well, 8 hr",−0.008
same,optical density at 550 nm,"[3]; octyl glucoside 1.50 mg/well, 1 hr",−0.004
same,optical density at 550 nm,"[3]; octyl glucoside 1.50 mg/well, 4 hr",−0.015
same,optical density at 550 nm,"[3]; octyl glucoside 1.50 mg/well, 8 hr",−0.015
same,optical density at 550 nm,"[3]; octyl glucoside 2.00 mg/well, 1 hr",−0.007
same,optical density at 550 nm,"[3]; octyl glucoside 2.00 mg/well, 4 hr",−0.012
same,optical density at 550 nm,"[3]; octyl glucoside 2.00 mg/well, 8 hr",−0.013
same,optical density at 550 nm,"[3]; octyl glucoside 2.50 mg/well, 1 hr",0.006
same,optical density at 550 nm,"[3]; octyl glucoside 2.50 mg/well, 4 hr",−0.004
same,optical density at 550 nm,"[3]; octyl glucoside 2.50 mg/well, 8 hr",−0.002
same,optical density at 550 nm,"[3]; octyl glucoside 5.00 mg/well, 1 hr",0.307
same,optical density at 550 nm,"[3]; octyl glucoside 5.00 mg/well, 4 hr",−0.013
same,optical density at 550 nm,"[3]; octyl glucoside 5.00 mg/well, 8 hr",−0.014
same,optical density at 550 nm,"[3]; octyl glucoside 7.50 mg/well, 1 hr",0.65
same,optical density at 550 nm,"[3]; octyl glucoside 7.50 mg/well, 4 hr",−0.015
same,optical density at 550 nm,"[3]; octyl glucoside 7.50 mg/well, 8 hr",−0.014
same,optical density at 550 nm,"[3]; octyl glucoside 10.00 mg/well, 1 hr",1.628
same,optical density at 550 nm,"[3]; octyl glucoside 10.00 mg/well, 4 hr",0.817
same,optical density at 550 nm,"[3]; octyl glucoside 10.00 mg/well, 8 hr",−0.014
ferritin,appearance of solution,"[2]; Example 18: egg yolk PC SUVs, ammonium acetate 10 mg/ml, oleic acid","optically clear solutions were obtained (although ferritin solution showed some opalescence, and was strongly coloured)"
carboxyfluorescein [reference compound],appearance of dispersions,"[2]; Example 33: soy PC SUV, melts of tripalmitin, triheptadecanoin or tristearin with 2% oleic acid, 78 C, after several minutes",completely clear
[Ca+2].[Cl-].[Cl-] [calcium chloride],appearance of dispersion,"[2]; Example 35: soy PC SUV, 500 mg Miglyol 818, after standing overnight",completely clear dispersion
same,appearance of dispersion,"[2]; Example 35: soy PC SUV, 500 mg oleic acid, after several hours",completely clear dispersion
Salmon calcitonin,appearance of oil phase,"[2]; Example 1: egg PC SUVs, lyophilised, 300 mg oleic acid BP, one to two hours at room temperature","single clear lipid phase, which was optically transparent"
same,protein content of clear preparation,"[2]; Example 2: soy PC SUVs, 95% oleic acid",6.7 mg protein/g oleic acid
same,appearance of preparation,"[2]; Example 2: soy PC SUVs, lyophilised, 1.2 g of 95% oleic acid",completely clear
same,appearance of oil phase,"[2]; Example 4: 13.4 mg protein, 100 mg soy PC, 200 mg oleic acid",clear oil phase
same,calcitonin content of clear oil phase,"[2]; Example 4: soy PC SUVs, 200 mg oleic acid",42.7 mg calcitonin/g
same,appearance of dispersion,[2]; [4],optically clear opalescent dispersion
same,appearance of dispersion,"[2]; Example 11: 30 mg soy PC, 300 mg MCT oil, following morning",opalescent
same,appearance of dispersion,"[2]; Example 11: 30 mg soy PC, 300 mg Miglyol 810, following morning",turbid
same,appearance of dispersion,"[2]; Example 11: 30 mg soy PC, 300 mg Miglyol 812, following morning",opalescent
same,appearance of dispersion,"[2]; Example 11: 30 mg soy PC, 300 mg Miglyol 818, following morning",completely clear
same,appearance of dispersion,"[2]; Example 11: 30 mg soy PC, 300 mg Miglyol 829, following morning",completely clear
same,appearance of dispersion,"[2]; Example 11: 30 mg soy PC, 300 mg Miglyol 840, following morning",turbid
"NC[C@@H]1O[C@H](O[C@H]2[C@@H](O)[C@H](O[C@@H]3[C@@H](O)[C@H](N)C[C@H](N)[C@H]3O[C@H]3O[C@H](CN)[C@@H](O)[C@H](O)[C@H]3N)O[C@@H]2CO)[C@H](N)[C@@H](O)[C@@H]1O.O=S(=O)(O)O [Neomycin sulphate, reference compound]",appearance of solution,"[2]; Example 27: soya PC dispersion, 1 g Miglyol 818, overnight at room temperature",optically clear solution
ribonuclease,appearance of dispersion,"[2]; Example 31: soy PC SUV, 1.6 g Miglyol 818, after several hours",clear dispersion
Haemoglobin,"Percent sedimentation after 24 hours, +PC",[1],0%
same,"Percent sedimentation after 24 hours, −PC",[1],44%
